Measured values published in US20200140557A1 (published 2020).
Each block holds one binder with its values, some of them ahead of it.

Biological target: T1, human FGFR1b extracellular domain
T1 chain: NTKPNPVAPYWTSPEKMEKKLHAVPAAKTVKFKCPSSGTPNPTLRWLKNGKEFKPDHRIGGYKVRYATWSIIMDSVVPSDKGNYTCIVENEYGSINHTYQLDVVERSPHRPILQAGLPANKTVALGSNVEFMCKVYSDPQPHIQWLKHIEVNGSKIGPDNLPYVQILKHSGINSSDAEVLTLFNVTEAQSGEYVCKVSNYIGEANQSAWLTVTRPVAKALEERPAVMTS
Experiment: SPR

Kd: 0.59 nM
B1: R1MAb1 (antibody)
chain 1: EVQLVESGGGLVQPGGSLRLSCAASGFTFTSTWISWVPGKGLEWVGEIDPYDGDTYYADSVKGRFTISADTSKNLQMNSLRAEDTAVYYCASSGYGGSDYAMDYWGQ
chain 2: DIQMTQSPSSLSASVGDRVTITCRASQDVSTAVAWYQQKPGKAPKLLIYSASFLYSGVPSRFSGSGSGTDFTLTISSLQPEDFATYYCQQSYTTPPTFGQGTKVEIKR

Kd: 0.44 nM
B2: R1MAb2 (antibody)
chain 1: EVQLVESGGGLVQPGGSLRLSCAASGFTFSNNYIHWVPGKGLEWVADIYPNDGDTDYADSVKGRFTISADTSKNLQMNSLRAEDTAVYYCAREHFDAWVHYYVMDYWGQ
chain 2: B1 chain 2
